Data on one molecule can be found in patent US9333268B2, “Methods of treatment with arginine deiminase” (Polaris Group, priority 2012, dated 2016).

In series [1] the test system is SK-LC-13 cells. As to the kind of experiment: Western blot of active caspase 3. In kind it is cell-based, human. The protocol: (§1) Following washing, the membranes were then probed with the appropriate secondary antibody before proteins were finally visualized using ECL reagent (Perkin-Elmer, Fremont Calif., USA).
In order to determine the possible mechanism of the antiproliferative effects of ADI-PEG 20 a FACS analysis of apoptosis by sub-G1 DNA content was performed. Cells were treated for 72 h before the analysis was performed.

For series [2], the system named is SK-LC-13. Briefly: Western blot of autophagy-related protein LC3-II. In kind it is cell-based, human. The conditions noted are these: 24 hour incubation.
Source text: as §1
An assay for the formation of the autophagy-related protein LC3-II assessed if treatment with ADI-PEG 20 was able to induce cellular autophagy in SCLC. […] Chloroquine is a known inhibitor of autophagy that disrupts normal lysosomal functions, and thus results in an increase in the cellular level of LC3-II.
A general note: Immunoblotting shows a protein as a band on a membrane.

Series [3] deals with ASS-negative SCLC cell line SW1271. Briefly: MTS proliferation assay, adherent cells. In kind it is cell-based, human. The conditions noted are these: 0 to 10 mIU ml^−1, 120 h. The protocol:
(§2) To assess the anti-proliferative effect of ADI-PEG 20 on adherent cells, cells were plated a density of 2×10^3 cells per well in a tissue culture 96-microwell plate and allowed to adhere overnight. The following day, cells were treated with ADI-PEG 20 (DesigneRx Pharmaceuticals, Vacaville, Calif., USA, a subsidiary of Polaris Group, San Diego, Calif., USA) ranging from 0 to 10 mIU ml^−1. After incubation for 120 h, cell viability was determined using (3-(4,5-dimethylthiazol-2-yl)-5-(3-carboxymethoxyphenyl)-2-(4-sulfophenyl)-2H-tetrazolium) (MTS, CellTiter 96 AQueous One Solution, Promega, Madison, Wis., USA), according to the manufacturers protocol. Twenty microliters of MTS reagent was added to the appropriate control and assay wells before the plate was incubated for 2 h at 37° C. and absorbance read at 490 nm. Absolute absorbance for each treatment was determined by subtracting the background MTS absorbance, and the mean and standard deviation was calculated. The effect of the autophagy inhibitor chloroquine (Sigma) on cell proliferation was assessed using the MTS assay.
(In general: Tetrazolium dyes change colour on reduction, which living cells bring about.)

For series [4], the system named is ASS-negative SCLC cell line SK-LC-13. Briefly: MTS proliferation assay, adherent cells. In kind it is cell-based, human. The conditions noted are these: 0 to 10 mIU ml^−1, 120 h. The protocol:
as §2

Series [5] is described as follows: Specific activity of ADI-PEG 20. Format: biochemical. As to the method:
The anti-tumor efficacy of ADI-PEG 20 was simultaneously assessed in mice bearing either moderate or large SK-LC-13 SCLC xenografts. In the first study, treatment was initiated once tumors had reached an average size of 125 mm^3. In the large xenograft study, treatment was initiated once tumors had reached an average size of 500 mm^3. Arginine deiminase-PEG20 was administered at doses of 1, 2 and 5 IU per animal once every 5 days for 20 days (five doses). To assess the effect of sustained dosing, further groups (n=5) at all dose levels received continued administration of ADI-PEG 20 every 5 days until tumors progressed to the 1,000 mm^3 size limit. Additionally, the efficacy of ADI-PEG 20 was assessed in mice bearing ASS-positive NCI-H69 xenografts. Here, mice received five doses of 2 IU ADI-PEG 20 for 20 days once tumor had reached an average size of 150 mm^3. Arginine deiminase-PEG20 was administered by intraperitoneal injection in all studies. The specific activity of ADI-PEG 20 used in these studies is 9 IU mg^−1 of protein. Thus, 1 IU of ADI-PEG 20 per 20 g mouse is equivalent to 160 IU m^−2.

For series [6], the system named is sarcoma cell lines with low expression of ASS. As to the kind of experiment: Sarcoma cell line panel treated with ADI-PEG 20. In kind it is cell-based.
Series [7] concerns ASS low expressing osteosarcoma cell line MNNG. Briefly: Xenograft of osteosarcoma cell line MNNG in nude mice. The conditions noted are these: compared to PBS treated controls. In kind it is in vivo.
In series [8] the test system is Caki-1 xenografts. Briefly: Caki-1 renal cell carcinoma xenografts in BALB/c-nude mice. In kind it is in vivo. The conditions noted are these: intramuscular. The protocol: The activity of ADI-PEG 20 was assessed in mice bearing Caki-1 (ATCC No. HTB-46™) xenografts. Renal cell carcinoma Caki-1 xenografts were established in female BALB/c-nude mice, 3-4 weeks of age with a body weight of 20 g (SLAC, Shanghai, China). To establish the tumors, 5×10^6 cells in media were mixed 1:1 with Matrigel High Concentration (BD Biosciences) and injected subcutaneously in the abdominal area of the mice. Tumor growth was regularly measured and tumor volume calculated using the formula (TV=(length×width^2)/2). When tumors reached an approximate volume of 125 mm^3, ADI-PEG20 was administered at doses level of 160, 320 and 640 IU/m^2 once every week for four weeks by intramuscular injection. Each study group had 9 mice. Mice were euthanized when tumors reached an approximate volume of 1100 mm^3. […] More than 80% tumor inhibition was achieved when 640 IU/m^2 was used.
In an additional experiment, the activity of ADI-PEG 20 as either a single agent or in combination with rapamycin was assessed in mice bearing Caki-1 xenograft. Renal cell carcinoma xenografts were established in female BALB/c-nude mice, 3-4 weeks of age weighing about 20 g (SLAC, Shanghai, China). […] Tumor growth was regularly measured and tumor volume calculated using the formula (TV=(length×width^2)/2). […]

Series [9] has as its system non-adherent ASS-positive cells. Briefly: Total protein proliferation assay, non-adherent cells. Format: cell-based. The conditions noted are these: 0-10 mIU ml^−1, 120 h. As to the method:
(§3) To assess the activity of ADI-PEG 20 in non-adherent cells, cells were plated at a density of 1×10^5 cells per well in a tissue culture 24-well plate. Additional media was then added containing ADI-PEG 20 for final concentrations ranging from 0-10 mIU ml^−1. To measure changes in proliferation following incubation with ADI-PEG 20 for 120 h, cells were collected, washed and lysed in RIPA buffer. Total protein for each treatment was then determined using the BSA protein assay as a measure of total cell number. All treatments were performed at least in triplicate.

Series [10] relates to non-adherent ASS-deficient cells. The description is as above. Format: cell-based. The conditions noted are these: 0-10 mIU ml^−1, 120 h. The protocol: as §3

B1: ADI-PEG 20: arginine deiminase (ADI) formulated with PEG of 20,000 m.w. (protein)
chain: MSVFDSKFNGIHVYSEIGELETVLVHEPGREIDYITPARLDELLFSAILESHDARKEHQSFVKIMKDRGINVVELTDLVAETYDLASKAAKEEFIETFLEETVPVLTEANKEAVRAFLLSKPTHEMVEFMMSGITKYELGVESENELIVDPMPNLYFTRDPFASVGNGVTIHFMRYIVRRRETLFARFVFRNHPKLVKTPWYYDPAMKMSIEGGDVFIYNNETLVVGVSERTDLDTITLLAKNIKANKEVEFKRIVAINVPKWTNLMHLDTWLTMLDKNKFLYSPIANDVFKFWDYDLVNGGAEPQPQLNGLPLDKLLASIINKEPVLIPIGGAGATEMEIARETNFDGTNYLAIKPGLVIGYDRNEKTNAALKAAGITVLPFHGNQLSLGMGNARCMSMPLSRKDVKW
Turning to B1, the activation of caspases result in [1] was “no activation of caspases”. Besides, the “cellular level of LC3-II” value in series [2] is listed as “clear increase in the detectable cellular level of the protein”. Also, the proliferation entry in series [3] is given as “clear dose-dependent decrease in proliferation”; in series [4], “clear dose-dependent decrease in proliferation”; in series [9] it was “almost total resistance”; in series [10], “relative decrease in proliferation”. Further, the specific activity in series [5] is reported as 9 IU mg^−1 of protein. The “cell cycle and apoptosis” value in [6] (ASS expression low) was “cell cycle arrest but not apoptosis”. Besides, in [6] (sarcomas that lack ASS), the autophagy entry is reported as “induced autophagy”. The 50% inhibitory concentration (IC50) (usually the concentration that inhibits the measured activity by half) in series [6] (sensitive cell lines with low expression of ASS) fell in the range of 0.02 to 0.1 mg/L. Also, in series [7], the tumor growth rate result is given as “significantly slower tumor growth rate”. The tumor growth result in series [8] (160, 320 and 640 IU/m^2 weekly for four weeks) was “inhibited tumor growth in a dose dependent manner”. Moreover, the tumor inhibition entry in series [8] (640 IU/m^2 weekly for four weeks) is “More than 80%”.
